For assay [1], the target named is T1, TNFR2-His (Sino Biological, 10417-H08H, NP_001057.1 Met1-Asp257, with multi-histidine tag expressed on … (human, UniProt P20333 23-257)).
T1 construct: range 1-257; Bought protein; also called recombinant human TNFR2 protein; TNFR2-His antigen; not shown: C-terminal multi-histidine tag
T1 sequence (looked up): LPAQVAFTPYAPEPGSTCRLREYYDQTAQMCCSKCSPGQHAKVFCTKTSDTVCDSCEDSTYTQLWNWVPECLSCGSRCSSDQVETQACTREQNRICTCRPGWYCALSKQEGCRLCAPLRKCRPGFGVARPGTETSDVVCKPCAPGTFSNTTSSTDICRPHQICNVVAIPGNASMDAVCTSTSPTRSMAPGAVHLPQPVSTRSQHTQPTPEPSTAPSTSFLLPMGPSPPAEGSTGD
Kind of assay: ELISA, coated TNFR2-His. An outline of the steps:
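EC50 values come from antibody dilution series tested by ELISA. Plates were coated with recombinant human TNFR2 bearing a C-terminal His tag and blocked before the serially diluted antibodies were added. Binding was detected with an enzyme-labelled anti-IgG secondary antibody, TMB development and a microplate reader.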
Background: An ELISA detects its analyte on a solid surface through an enzyme-linked reagent.

In assay [2] the target is T1, TNFR2-His (Sino Biological, 10417-H08H, …). Kind of assay: ELISA, plate coated with TNFR2-His. As to the method:
To determine whether the human-mouse chimeric TNFR2 monoclonal antibody of the present invention can bind to recombinant human TNFR2 protein, in vitro ELISA test was conducted. Similar to the method described above, The plate was coated with TNFR2-His (Sino Biological, 10417-H08H, Assessment #NP_001057.1.Met1-Asp257, with multi-histidine tag expressed on C-terminus) antigens, and blocked with BSA, then added with gradient diluted human-mouse chimeric TNFR2 monoclonal antibodies for incubation. Then, secondary antibody Ap-anit-human IgG Fc (JacksonImmuno Research, 109-055-098) was added for incubation After TMB development, ELISA reading was performed.

Assay [3] shares this target. Kind of assay: BLI, antibody captured on AHC probe, TNFR2 in solution. As to the method: The GATOR (ProbeLife) detection instrument and AHC (Pall, 185064), Human antibody Capture probe were used to detect the dissociation constant (Kd) of human-mouse chimeric TNFR2 monoclonal antibody.
The human-mouse chimeric TNFR2 monoclonal antibodies were diluted to 50 nM in binding buffer (Q buffer [PBS (10 mM PH7.4)+0.02% Tween 20+0.2% BSA). The recombinant human TNFR2 protein was diluted in Q buffer with a 2-fold gradient starting from the highest concentration of 100 nM. The kinetic association assay was conducted by placing the antibody capture sensor in the continuously diluted antigen solutions mentioned above. The Octet Data Acquisition software was pened and the New Kinetics Experiment-Basic Kinetics mode was selected.
For orientation: Biolayer interferometry detects binding as a change in optical thickness at a sensor tip.

Assay [4] addresses T2, human TNFR2 on the cell membrane (human, UniProt P20333 23-461).
T2 construct: whole, on cells; One molecule for all cell formats; also called TNFR2-CHO cells; CHO-TNFR2
T2 sequence (looked up): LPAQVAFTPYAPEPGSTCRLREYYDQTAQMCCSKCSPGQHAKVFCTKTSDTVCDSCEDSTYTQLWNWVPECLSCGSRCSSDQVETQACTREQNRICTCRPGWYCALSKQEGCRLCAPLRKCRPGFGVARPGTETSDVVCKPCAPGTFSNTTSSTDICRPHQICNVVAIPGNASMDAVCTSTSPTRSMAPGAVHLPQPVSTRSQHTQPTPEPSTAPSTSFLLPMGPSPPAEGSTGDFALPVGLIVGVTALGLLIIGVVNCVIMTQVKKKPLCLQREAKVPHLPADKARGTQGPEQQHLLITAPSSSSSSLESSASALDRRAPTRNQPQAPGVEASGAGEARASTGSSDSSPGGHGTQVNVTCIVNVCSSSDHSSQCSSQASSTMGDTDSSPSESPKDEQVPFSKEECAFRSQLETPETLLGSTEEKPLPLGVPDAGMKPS
As to the kind of experiment: flow cytometry on Jurkat-TNFR2 cells. The method, then: (§1) Purified human-mouse monoclonal antibodies against TNFR2 were co-cultured with TNFR2 positive Jurkat cells (Jurkat cells were transfected with pcDNA3.4-TNFR2 plasmid using conventional methods, and after screening, stable and highly expressed TNFR2 Jurkat cell lines were obtained) and stained. The antibody binding intensity was analyzed by flow cytometry. The specific steps are as follows: Jurkat-TNFR2 was counted, centrifuged, resuspended, then added to a 96-deep well plate, and the supernatant was discarded. The anti-TNFR2 antibody was gradient diluted, and added to the 96-deep well plate, After incubation and wash, the secondary antibody FITC-anti-human IgG (Abcam: 6854) was added, and the samples were detected using Beckman CytoFLEX.

A further assay addresses T3, WT.
T3 construct: also called T cells of wild-type (WT) mice; mouse TNFR2 on the cell membrane
T3 chain: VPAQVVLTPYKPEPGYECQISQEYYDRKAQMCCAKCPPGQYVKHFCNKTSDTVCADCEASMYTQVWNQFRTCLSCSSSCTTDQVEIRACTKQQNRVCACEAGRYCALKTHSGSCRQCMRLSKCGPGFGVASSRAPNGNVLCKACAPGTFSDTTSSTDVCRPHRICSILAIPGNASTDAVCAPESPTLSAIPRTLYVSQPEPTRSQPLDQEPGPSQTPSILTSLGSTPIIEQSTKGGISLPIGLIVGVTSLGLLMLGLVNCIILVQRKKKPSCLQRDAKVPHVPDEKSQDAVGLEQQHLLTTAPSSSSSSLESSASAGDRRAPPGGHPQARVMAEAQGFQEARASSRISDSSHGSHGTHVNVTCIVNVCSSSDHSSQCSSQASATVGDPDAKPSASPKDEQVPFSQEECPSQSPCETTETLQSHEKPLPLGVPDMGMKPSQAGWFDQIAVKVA
Kind of assay: flow cytometry on ConA-stimulated spleen cells of WT mice, mCD3+ T cells. As to the method: (§2) The cells were stained again with Cy-3 anti-human IgG and FITC anti-mCD3 (BD, 555274) after washing, under the same incubation conditions. After washing, the detection was performed.
For orientation: A flow cytometer gives signals particle by particle.

In assay [5] the target is T2, human TNFR2 on the cell membrane. Kind of assay: flow cytometry on ConA-stimulated spleen cells of hTNFR2-KI mice, mCD3+ T cells. As to the method: as §2
For assay [6] the target is unchanged. As to the kind of experiment: flow cytometry, Jurkat-TNFR2 cells. As to the method:
as §1

The results in this text go back to US20240392024A1 (SHANGHAI CELGEN BIO PHARMACEUTICAL, published 2024).

B1: human-mouse chimeric TNFR2 monoclonal antibody 27F6-hFc (antibody, V domains shown)
VH: EVQLQQSGTVLARPGASVKMSCKTSGYTFTSYWMHWVKQRPGQGLEWIGTIYPGNSDTSYNQKFKGKAKLTAVTSASTAYMELNSLTNEDSAVFYCTRENLLLRSYFFDYWGQGTTLTVSS
VL: DIVMTQSPASLAVSLGQRATISCKASQSVDYDGDSYLNWYQQKPGQPPKLLIYAASNLPSGIPARFSGSGSGTDFTLNIHPVEEEDAATYYCQQSNEDPRTFGGGTKLEIK
notes: Mouse V regions of clone 27F6 with human constant regions
A word on the EC50: it is the concentration giving half of the maximal effect. Low readings indicate greater potency, high ones weaker potency. The term Kd denotes a measure of binding affinity in units of concentration. A low value points to tighter binding. By koff is commonly meant a measure of how fast the partners let go of each other. A higher koff goes with a short-lived complex. By kon is commonly meant a measure of how fast the partners come together. High values mean faster complex formation, low ones slower complex formation. Turning to B1, the EC50 was found to be 0.278 nM in assay [1], 0.0415 µg/mL in assay [2], 0.0357 µg/mL in assay [4] and 0.036 µg/mL in assay [6]. In assay [3], this molecule showed a Kd of 9.38 nM. Moreover, the koff in assay [3] was 0.00761 s⁻¹. Further, the kon in assay [3] turned out to be 811000 M⁻¹ s⁻¹. Further, in the assay with WT, the binding result is listed as “no binding”. The entries for the “percent of cells in the upper right quadrant (Q2-UR, mCD3+ and anti-hIgG+)” value (in the assay with WT; in assay [5]) were 1.04% and 36%, respectively.

B2: human-mouse chimeric TNFR2 monoclonal antibody 12E12-hFc (antibody, V domains shown)
VH: EVQLQQSGAELVKPGASVKLSCTVSGFNIKDFYIHWVKQRPEQGLEWIGRVDPEDGNTEYAPNFQDRATMTTDTSSNTAYLQLSSLTSVDTAVYYCSTWDGFSYFDYWGLGTTLTVSS
VL: QAVVTQESALTTSPGETVTLTCRSSTGPVTTNNYANWVQEKPDHLFTGLIGGTNDRAPGVPARFSGSLIGDKTALTITGTQTEDEAVYFCALWYRNHWVFGGGTKLTVL
notes: Mouse V regions of clone 12E12 with human constant regions; also called human-mouse chimeric 12E12 antibody
As for B2, the EC50 was 0.265 nM in assay [1], 0.0396 µg/mL in assay [2], 0.0123 µg/mL in assay [4] and 0.012 µg/mL in assay [6]. This molecule displayed a Kd in assay [3] of 3.9 nM. The koff in assay [3] turned out to be 0.00304 s⁻¹. The kon in assay [3] was determined as 780000 M⁻¹ s⁻¹. The binding result in the assay with WT is “no binding”. Also, the figures for the “percent of cells in the upper right quadrant (Q2-UR, mCD3+ and anti-hIgG+)” value (with WT; in assay [5]) were 0.83% and 46.2%, respectively.
